Source: the supplement of paper PMC9428881
± gives the standard error.

assay: background-corrected fluorescence of 3'-dye-labeled ssDNA relative to brightest sequence (3'-GCGCG) (fraction); higher = brighter dye fluorescence (less quenching); conditions: dye: Cy5 (3' terminal)
In short: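 Subtracting background from unlabeled oligos and scaling to the brightest sequence gave the reported fluorescence. Single-stranded DNA bearing a 3' Cy3 or Cy5 dye next to each of 1024 permuted pentamers was assembled on glass slides by light-directed phosphoramidite synthesis. Following a 2 h r.t. acetonitrile wash, slides were scanned at 532 or 635 nm before and after overnight ethylenediamine/ethanol deprotection, and values were averaged over 10 features per array and at least 3 syntheses.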

Row | Sequence | background-corrected fluorescence
1 | TTTTTTCATGCTCATGCTGCTTTTTTTTTTTTTTTGAGAA [AAGAG] | 0.513 ± 0.026
2 | TTTTTTCATGCTGAGCAGCATTTTTTTTTTTTTTTGACTT [TTCAG] | 0.401 ± 0.021
3 | TTTTTTCATGCTGAGCATCATTTTTTTTTTTTTTTGACTG [GTCAG] | 0.39 ± 0.032
4 | TTTTTTCATGCTGAGCATGATTTTTTTTTTTTTTTGACTC [CTCAG] | 0.317 ± 0.028
5 | TTTTTTCATGCTGAGCATGCTTTTTTTTTTTTTTTGACTA [ATCAG] | 0.416 ± 0.029
6 | TTTTTTCATGCTGATCAGCATTTTTTTTTTTTTTTGACGT [TGCAG] | 0.474 ± 0.028
7 | TTTTTTCATGCTGATCATCATTTTTTTTTTTTTTTGACGG [GGCAG] | 0.585 ± 0.076
8 | TTTTTTCATGCTGATCATGATTTTTTTTTTTTTTTGACGC [CGCAG] | 0.462 ± 0.065
9 | TTTTTTCATGCTGATCATGCTTTTTTTTTTTTTTTGACGA [AGCAG] | 0.52 ± 0.025
10 | TTTTTTCATGCTGATGAGCATTTTTTTTTTTTTTTGACCT [TCCAG] | 0.34 ± 0.026
11 | TTTTTTCATGCTGATGATCATTTTTTTTTTTTTTTGACCG [GCCAG] | 0.428 ± 0.043
12 | TTTTTTCATGCTGATGATGATTTTTTTTTTTTTTTGACCC [CCCAG] | 0.282 ± 0.022
13 | TTTTTTCATGCTGATGATGCTTTTTTTTTTTTTTTGACCA [ACCAG] | 0.394 ± 0.024
14 | TTTTTTCATGCTGATGCGCATTTTTTTTTTTTTTTGACAT [TACAG] | 0.388 ± 0.025
15 | TTTTTTCATGCTGATGCTCATTTTTTTTTTTTTTTGACAG | 0.423 ± 0.036
16 | TTTTTTCATGCTGATGCTGATTTTTTTTTTTTTTTGACAC [CACAG] | 0.321 ± 0.044
17 | TTTTTTCATGCTGATGCTGCTTTTTTTTTTTTTTTGACAA [AACAG] | 0.415 ± 0.022
18 | TTTTTTCATGCTGCGCAGCATTTTTTTTTTTTTTTGAATT [TTAAG] | 0.382 ± 0.03
19 | TTTTTTCATGCTGCGCATCATTTTTTTTTTTTTTTGAATG [GTAAG] | 0.367 ± 0.029
20 | TTTTTTCATGCTGCGCATGATTTTTTTTTTTTTTTGAATC [CTAAG] | 0.311 ± 0.025
21 | TTTTTTCATGCTGCGCATGCTTTTTTTTTTTTTTTGAATA [ATAAG] | 0.42 ± 0.053
22 | TTTTTTCATGCTGCTCAGCATTTTTTTTTTTTTTTGAAGT | 0.529 ± 0.056
23 | TTTTTTCATGCTGCTCATCATTTTTTTTTTTTTTTGAAGG [GGAAG] | 0.512 ± 0.025
24 | TTTTTTCATGCTGCTCATGATTTTTTTTTTTTTTTGAAGC [CGAAG] | 0.397 ± 0.027
25 | TTTTTTCATGCTGCTCATGCTTTTTTTTTTTTTTTGAAGA [AGAAG] | 0.582 ± 0.029
26 | TTTTTTCATGCTGCTGAGCATTTTTTTTTTTTTTTGAACT [TCAAG] | 0.36 ± 0.025

Row | Sequence | background-corrected fluorescence
27 | TTTTTTCATGCTGCTGATCATTTTTTTTTTTTTTTGAACG [GCAAG] | 0.404 ± 0.023
28 | TTTTTTCATGCTGCTGATGATTTTTTTTTTTTTTTGAACC [CCAAG] | 0.288 ± 0.027
29 | TTTTTTCATGCTGCTGATGCTTTTTTTTTTTTTTTGAACA [ACAAG] | 0.394 ± 0.024
30 | TTTTTTCATGCTGCTGCGCATTTTTTTTTTTTTTTGAAAT [TAAAG] | 0.419 ± 0.025
31 | TTTTTTCATGCTGCTGCTCATTTTTTTTTTTTTTTGAAAG | 0.431 ± 0.056
32 | TTTTTTCATGCTGCTGCTGATTTTTTTTTTTTTTTGAAAC [CAAAG] | 0.333 ± 0.045
33 | TTTTTTCATGCTGCTGCTGCTTTTTTTTTTTTTTTGAAAA [AAAAG] | 0.491 ± 0.052
34 | TTTTTTGAGCAGCAGCAGCATTTTTTTTTTTTTTTCTTTT | 0.357 ± 0.035
35 | TTTTTTGAGCAGCAGCATCATTTTTTTTTTTTTTTCTTTG [GTTTC] | 0.343 ± 0.027
36 | TTTTTTGAGCAGCAGCATGATTTTTTTTTTTTTTTCTTTC | 0.297 ± 0.05
37 | TTTTTTGAGCAGCAGCATGCTTTTTTTTTTTTTTTCTTTA [ATTTC] | 0.4 ± 0.037
38 | TTTTTTGAGCAGCATCAGCATTTTTTTTTTTTTTTCTTGT [TGTTC] | 0.429 ± 0.024
39 | TTTTTTGAGCAGCATCATCATTTTTTTTTTTTTTTCTTGG [GGTTC] | 0.47 ± 0.05
40 | TTTTTTGAGCAGCATCATGATTTTTTTTTTTTTTTCTTGC [CGTTC] | 0.365 ± 0.022
41 | TTTTTTGAGCAGCATCATGCTTTTTTTTTTTTTTTCTTGA [AGTTC] | 0.53 ± 0.07
42 | TTTTTTGAGCAGCATGAGCATTTTTTTTTTTTTTTCTTCT | 0.342 ± 0.027
43 | TTTTTTGAGCAGCATGATCATTTTTTTTTTTTTTTCTTCG [GCTTC] | 0.384 ± 0.019
44 | TTTTTTGAGCAGCATGATGATTTTTTTTTTTTTTTCTTCC [CCTTC] | 0.229 ± 0.015
45 | TTTTTTGAGCAGCATGATGCTTTTTTTTTTTTTTTCTTCA [ACTTC] | 0.382 ± 0.041
46 | TTTTTTGAGCAGCATGCGCATTTTTTTTTTTTTTTCTTAT [TATTC] | 0.369 ± 0.025
47 | TTTTTTGAGCAGCATGCTCATTTTTTTTTTTTTTTCTTAG [GATTC] | 0.395 ± 0.039
48 | TTTTTTGAGCAGCATGCTGATTTTTTTTTTTTTTTCTTAC [CATTC] | 0.3 ± 0.017
49 | TTTTTTGAGCAGCATGCTGCTTTTTTTTTTTTTTTCTTAA [AATTC] | 0.427 ± 0.039
50 | TTTTTTGAGCATCAGCAGCATTTTTTTTTTTTTTTCTGTT [TTGTC] | 0.411 ± 0.033
51 | TTTTTTGAGCATCAGCATCATTTTTTTTTTTTTTTCTGTG [GTGTC] | 0.425 ± 0.021
